# Source: patent US20220220204A1
# Tests used:
# [1] = target: human LAG-3 (LAG-3 effector Jurkat T cells) (human) (UniProt P18627); assay: cell-based or functional assay
# [2] = target: human PD-L1 (PD-L1 aAPC/CHO-K1 cells) (human) (UniProt Q9NZQ7); assay: cell-based or functional assay
# PD-L1 = PD-L1 (UniProt Q9NZQ7); assay: FACS binding
# Chain of PD-L1 (Q9NZQ7 19-290): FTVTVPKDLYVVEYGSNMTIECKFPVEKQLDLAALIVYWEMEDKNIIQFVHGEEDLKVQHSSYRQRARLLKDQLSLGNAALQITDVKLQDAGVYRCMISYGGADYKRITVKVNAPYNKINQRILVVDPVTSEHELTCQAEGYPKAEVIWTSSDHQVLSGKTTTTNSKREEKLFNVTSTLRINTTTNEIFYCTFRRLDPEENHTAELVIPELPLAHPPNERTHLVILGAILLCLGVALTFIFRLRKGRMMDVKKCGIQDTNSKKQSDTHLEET
# Chain of human LAG-3 (LAG-3 effector Jurkat T cells) (human) (P18627 23-525): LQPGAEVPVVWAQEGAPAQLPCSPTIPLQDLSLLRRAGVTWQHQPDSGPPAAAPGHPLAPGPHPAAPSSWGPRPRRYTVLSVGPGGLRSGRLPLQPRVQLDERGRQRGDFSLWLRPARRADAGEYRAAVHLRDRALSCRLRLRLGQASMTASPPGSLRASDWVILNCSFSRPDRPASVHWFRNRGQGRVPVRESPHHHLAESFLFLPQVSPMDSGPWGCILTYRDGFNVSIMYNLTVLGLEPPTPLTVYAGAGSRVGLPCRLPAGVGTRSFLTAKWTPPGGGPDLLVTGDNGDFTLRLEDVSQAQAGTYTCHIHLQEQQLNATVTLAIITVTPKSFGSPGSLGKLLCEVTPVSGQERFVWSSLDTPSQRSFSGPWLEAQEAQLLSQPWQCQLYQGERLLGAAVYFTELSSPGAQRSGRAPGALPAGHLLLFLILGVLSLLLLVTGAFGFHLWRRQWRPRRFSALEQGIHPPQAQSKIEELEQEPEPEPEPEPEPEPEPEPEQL
# Chain of human PD-L1 (PD-L1 aAPC/CHO-K1 cells) (human) (Q9NZQ7 19-290): as the sequence (Q9NZQ7 19-290) above
substance,measurement,setting,value
25F7 biosimilar (antibody),Bottom (LAG-3 blockade bioassay),[1],312000
same,Log EC50 (LAG-3 blockade bioassay),[1],0.841
same,Top (LAG-3 blockade bioassay),[1],918000
Tecentriq biosimilar (antibody),Bottom (PD-1/PD-L1 blockade bioassay),[2],28700
same,EC50 (PD-1/PD-L1 blockade bioassay),[2],0.342
same,Log EC50 (PD-1/PD-L1 blockade bioassay),[2],-0.467
same,Top (PD-1/PD-L1 blockade bioassay),[2],117000
human IgG,EC50,PD-L1,8.88 pM
